Reference: the DeepSol protein solubility set

assay: soluble on expression in E. coli; label from the status in PepcDB or PDB records

Row | Sequence | soluble on expression in E. coli
1 | MFMNKPFGSKRCEPFHESEHLCEAFAITEAILARYQRGKRSFTSSEKSGLAALIKRIPYDILVEVLDQSGFTPTSNATPPVDYLAMMEHTMTHGASITHALQYLNDLMTKCTGCPGIRTYYHNPNDDVLADPVHDTAALIDETTAVGKSVVTKQYLNIAGAHYIPLIHGDIVVGCVEVPRFSGNLEKLPSFPSLIRAVTCTAHKFIEEARINWNREKAEAMLQMATRLARDNLDETVLASSIMNTVKSLTESARCSLFLVKDDKLEAHFEDGNVVSIPKGTGIVGYVAQTGETVNIVDAYADDRFNREVDKATGYRTKTILCMPVMYEGTIVAVTQLINKLDLTTESGLRLPRVFGKRDEELFQTFSMFAGASLRNCRINDRLLKEKKKSDVILDVVTVLSNTDIRDVDGIVRHALHGAKKLLNADRSTLFLVDKERNELCSRMADSVAGKEIRFPCGQGIAGTVAASGVGENIQDAYQDPRFNREVDKQLGYRTQTILCEPIILNGEILAVVQLVNKLDTSGEVTVFTEDDRDTFRVFSLFAGISINNSHLLEFAVKAGREVMELNEHRATLFNKNVPSRAVKRVTAITKVEREAVLVCELPSFDVTDVEFDLFRARESTDKPLDVAAAIAYRLLLGSGLPQKFGCSDEVLLNFILQCRKKYRNVPYHNFYHVVDVCQTIHTFLYRGNVYEKLTELECFVLLITALVHDLDHMGLNNSFYLKTESPLGILSSASGNTSVLEVHHCNLAVEILSDPESDVFDGLEGAERTLAFRSMIDCVLATDMAKHGSALEAFLASAADQSSDEAAFHRMTMEIILKAGDISNVTKPFDISRQWAMAVTEEFYRQGDMEKERGVEVLPMFDRSKNMELAKGQIGFIDFVAAPFFQKIVDACLQGMQWTVDRIKSNRAQWERVLETRLSTSSGNNSSTR | not soluble
2 | MFPSPTPPLVSPTAVIEEENDDSVREFSRTLKSRLNCAMVKLSKEHEQVALIPPPPTEKIRKGSYSNKFAAKHRRCHSLDESKKFLSSLEDSSAHAAFLKAISSKHAKSNRVDNVNVSPLRWSSHRRTQSTQENSLQEVVAIDTLLKMSSSD | not soluble
3 | MFRPASIAVTAALCACALPALASETLNSRTDVLAALEAGYDVSVSTDLSRCTPEEGTPVSRTRGGRHIDAYRITEDGNVAFSGAHFTVANDGKPIQQFMRYQLRPDGSVRFTTYMYDLPGLQQRGPVLAYQCAFNEGARFHADLEHHHHHH | soluble
4 | MFWRSIPSLQTLLAAGMGLLMLEIVMAHQPAQAESCTVDPFGSEVCLPDSTPEEPDKPKRSNQSKKSNKPDKSKRMVIVPSCFGPCTQFPPAPPYRQFQEVMEEAALKATPDATPEPRPAEPLRPLWFKSDQLDDVEAETYLERTLDRNDMAQLNAVGIEADTDADGMVITVDGLSYGEVLEPHGLLFTNEVNEPGLNAWVRGFGGGSSNGAAGDRYANFSNGGSQIGFDIPINDETRIGLFGTYAVMNGTDGARGSWDSDGWGGGAYAEYWTSDFYLRGMVSAGGYDGEHRRKIDGETAKGDRSGNSWTGVLNIGAPLQSGDWIIEPQAQLSYTNTSLDKFSEHGANRRDRLRFHEMEVDQLGSELSVKFAIPIRDGERSLLLPSLRVGWAADWGMSGDHQKVSYLESGKSQRWDVNGNDDHAALVELGLDYTTFNFQDTSMGVYARGGGLLWAGNRGTSWQVQGGLNFKF | not soluble
5 | MGAAAAPEVNMELVGHFGGTTDAVDVAGNYAYVGQGQDFLILDITNPSSPVLVSKIMTEGFVRDIKVSRNYAYVADDDNGLVIVDISNPSSPTLKGSYNIPGYTYCITVSGNYAYVADNDGLVIVDISNPSDPILKGRYAGPTGDVAVYGNYAYVADWGNGLMIVDISNPSSPVLKGSYDTAGDIYGVSISGNYAYVADGDTGLVIVDISNPSSPTLKGNYNTAGIACDVSVLGNYAYVADNDNGLVIVDISDPSSPVLKGNGSTTGYAHGIEVSGNYAYVANSNTGLVIVDISNPSSPTLKGSCDTIVRAKSIAVSGNYAYIADWDNGLVIVDISNPSSPFLKGSCDTPRSAQGVAVSGNYAYVADDDGLVIVDISNPSFPILNKSYNTGGWAQGITVSGNYAYVIDMANGIFIVDISNPSSPILEGMYDTSPIIIENYDYTGSIWSVSVSGNYAYVADEGNGLLIVDISNPSSPILKGSYDTAGLAYDVAVSGNYAYVADSKNGLAIIDISNPSSPILVGNYNTSGYAECVSISGNYAYVAVDDSLVVVDISNPSSPILKGLYAGSAGDIAVSGNYVYASEGVNGLVILKANPESAFTVADFSSNITSGYAPLSIQFNDHSQNATSWNWDFGDGYNSTNQNPIHTYSSAGTYTVNLTVINENRTASKVAKIFVLNTSLEHHHHHH | not soluble
6 | MGAAKPIFVEHSIVIDRPAQQVYDYWRKLENLPQIMSHLESVTVLDDKRSRWVAKAPLGTHVEWEAEVVNDKPGERIGWHSLPGATVDNAGSVQFESLPDDKTRVHVALSYRPPAGPLGAAVAKLFGEEPSQQIAEDLQKFKATFEGLEHHHHHH | not soluble
7 | MGAVNKDVFATGAGQVDPAKVLSPGLVYDATTEDYLKFIQGTGMDLGMEGLGTTQARDMNVPSFALGNLAGKIEVTRTLTALTPGTYRASVNVPGVNVKVTPSVLTFGAPGEKKTFKVQFENNNAALGKFAMGSLNWQGANKTVTSPIAVRPQSVIALEHHHHHH | not soluble
8 | MGCAVSQESAIATVSSSSNTATTSTSSSNTSQKWATSRTSRPVTNVTQVSAIHTTSMDSGSSTVQLPSPRGSLTTAVSTSSSGAQRQMSANSERSLHTRPLSETAVILQSQAVKMSTGAGDSAVYEAVERGSLYSLDYRVYIKGPQGIVSPWHDIPLFANKDKRVYNMIVEIPRWTNAKMEMATKEPFSPIKQDEKKGVARFVHNIFPHKGYIWNYGALPQTWEDPNHVVPDTGAKGDNDPIDVIEVGSKVAGRGAVLQVKVLGTLALIDEGETDWKLVAIDVNDENADKLNDIDDVEKVYPGLLAASVEWFRNYKIPAGKPANEFAFNGEFKNREYAEKVIDETNEYWKTLIKEANPSLNTVSRVPEAVHQGTDEAAATAIGATPEHGANAPLPGDVDKWHFVQG | not soluble
9 | MGDIEGSSSAAQSAQPEETGETNADKTGFFTRIMDAFSSGESQQEPTLGGASAAPVPVPGILNLRRMRVEDVAIPTAEIVSVPLTVSKEELVHVFRDSGMTRIPVYENTLDTPLGFVHLKDFALTHGFNGNSTQFDLRSMLRPLLFVPPSMPIGVLLAKMQTERRHMALVIDEYGGVDGLLTIEDLIEQVVGEIEDEHDTDEAQTWVKERPGCYIAQARTPLDEFETEIGRSLTNHEDVDEEEIDTLGGLVFMLSGRVPARGEVVPHPDGVEFEVIDADPRRIKRLRVMIPDAAE | not soluble
10 | MGDRGYGGSRSYGGSSGGGSRGGYGGGGRGGGGGGYSGGRGGGYGGGGGGGYGGGGYGGGGRGGGRGGSNGSAGGRLRDVDWSAENLTPIEKDFYHENAAVSRREQYEIDQWVSANQVTLEGRGVPRPVFEFNEAPLPGQIHELLYGKFQKPTVIQSISWPIAMSGRDIISIAKTGSGKTLAFMLPALVHITKQAHRQRGEGPAVLVLLPTRELAQQVQEVSIDFCHSLGLKMTCLFGGASKGPQARDLERGVDIVVATPGRLLDFLDNGTTNMKKCSYLVLDEADRMLDMGFEPQIKKIIGQIRPDRQTLMFSATWPKEVRALASDFQKDAAFLNVGSLELAANHNITQVVDILEEHAKQAKLMELLNHIMNQKECKTIIFVETKRKADELTRAMRRDGWPTLCIHGDKNQGERDWVLQEFKAGKTPIMLATDVAARGLDVDDIKFVINYDYPNNSEDYVHRIGRTGRSDKKGTAYTFFTHTNASKAKDLLKVLDEAKQTVPQALRDMANRSYGGSNSRGRYGGGGFQKRGYGGNDNFAPKRPRYDNGGYGGGSGGGGRW | not soluble
11 | MGEDTRVSYQDIKARVLAAIRDNTWPPGAMLPGEVALAQEYGCARATVNRAMRELAEEGILERKRKAGTRVKLAPARQARFSIPVVREEIEALGASYRYALVSRSEEATPKWLAAQLGLGAGDRVLHLVCMHYADERPFQLEQRWINLATVPQAAKKDFSQTGPNEWLVSEVPFTDIRLSFSACRGNRETAEFLGGNETDAHFTVERVTWLGERPVTYARLLFHAGYRMTTTL | not soluble
12 | MGEETRRQERRIDAEKRAVSSLLFRIIRSHSTPVANSTASDEATAAAAAGQQNFASRKRRETKKREKSSSSCVSHCFLVMGHGKAFVF | not soluble
13 | MGEKRKTRQAEVNIGMVGHVDHGKTTLTKALTGVWTDTHSEELRRGITIKIGFADAEIRRCSNCGRYSTSPICPYCGHETEFIRRVSFIDSPGHEALMTTMLAGASLMDGAILVIAANEPCPRPQTREHLMALQIIGQKNIIIAQNKIELVDKEKALENYRQIKEFIKGTVAENAPIIPISALHGANIDVLVKAIEEFIPTPKRDSNKPPKMLVLRSFDVNKPGTPPEKLVGGVLDGSIVQGKLKVGDEIEIRPGVPYEEHGRIKYEPITTEIVSLQAGGQFVEEAYPGGLVGIGTKLDPYLTKGDLMAGNVVGKPGKLPPVWTDLRLEVHLLERVVGTEQELNVEPIKRKEVLLLNVGTARTMGLVTALGKDEIELKLQIPVCAEPGERVAISRQIGSRWRLIGYGIIKELEHHHHHH | soluble
14 | MGEPKDSLALFLCHESESSLNEDDDETIERSDKQEPHFTTTIDDEDYVADLVLKENLRFETLPSKTTSSSDRLIAIDWILTTRTRFGFQHQTAYIAISYFDLFLHKRFIGLQKDETWAMRLLSVACLSLAAKMEERIVPGLSQYPQDHDFVFKPDVIRKTELLILSTLDWKMNLITPFHYFNYFLAKISQDNHSVSKDLVLLRSSDSLLALTKEISFTEYRQFVVAAVTTLLASSSTSSDIRLTREEIANKFGSISWWTSNENENVYLCYQRTLEIEERKHMTPPPEIAVSREPPASGSGAKRRLSFDDSDQSSPPAKRMRRL | soluble
15 | MGERGVEMRLRIRFESAECEVELYEEWAPETVRAIADALPIKSTANRWGDEIYFTTQVAVEKEENSKDVVELGDVAYWIPGKAICLFFGKTPISDDKIRPASAVNVIGRIVNSMEGLKGVADGESVVVERA | not soluble
16 | MGETYDLLVIGGGINGVGIARDAAGRGLSVCLCEQDDLAAHTSSASTKLIHGGLRYLEQYEFALVGKALAEREVLLRLAPHIIWPLRFLLPHQPHLRPAWMIRAGLFLYDHLGGSKRSLPRSRRLSLRTHPVGQPLQESLRTGFVYSDAWVQDARLVVLNAMDAAKRGAQIHTRTRCVGAWRDAGFWYAELEGCDGRRRTVQSRALANAAGPWAVSFLDKVAAVPHQHALRLVKGSHIVVPKLFDHDHAYIFQQPDRRIVFAIPYEHDFTLIGTTDVDYEADPSAPKIDAAEVQYLCDAVNLYFQQQITPQDVVWNYSGVRPLLDDAEDNAAEVTRDYQLEVLTDGAPLLNVFGGKLTTYRKLAEEAVDRLTQALGARKPAWTARGEALPGGEQRDIASLLERVRTARPWLPAATAQRLVRNYGTCAEQLLGDAQDMAALGQHFGADLYQAEVDYLCAREWAQTADDILWRRSKLGLRVDAEARARLEAYLQTRPAAHANAQTHVVPALEHHHHHH | not soluble
17 | MGEVQREKVAVIIGPTAVGKTKLSIDLAKALNGEIISGDSMQIYRTMDIGTAKVTKAEMDGIPHYMIDIKNPEDSFSVAEFQERVRKHIREITERGKLPIIVGGTGLYIQSVLFDYQFTDDAGDVIYREQREKLALERGVEYVHEKLQEVDPESAERIHANNVRRVIRALEIFHTTGEKMSEQIEKQEKELLYDVSLIGLTMDREMLYDRINLRVDLMMEQGLLEEVEGLYNRGIRDCQSIQAIGYKEIYDYFENRASLEDAVSQLKTNSRRYAKRQLTWFRNKMDVTWFDVTDGEKTSEILRYIEGKLQVKSNNSKLEHHHHHH | soluble
18 | MGFDLFGKIEDILKELPQDKEASVEDFEEERIKNCVPRIHKELREGFSPLEAGVLPYAISLNKGCYVGQEAIARVYFRGRTPRVLTKFEVIEQVKEEEKILEGNKAIGLITSVSPSGKMALGYILRAKFEKGKEYQTESGKVKAKGVCEDGSTLEHHHHHH | not soluble
